± gives the half width of the 95% confidence interval.
Assay: folding stability dG unfold from trypsin proteolysis; higher = more stable
How it was run: (§1)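 Digests were run with trypsin and chymotrypsin at 11 concentrations in threefold dilutions, plus a no-protease condition, on designed mini-proteins in a PA-tagged cDNA display construct. The mini-proteins were under 80 residues, had no cysteine, and were kept only when AlphaFold2 dimer inter-PAE was above 15. After sequencing, Bayesian fitting of the counts gave K50, from which unfolding free energy was derived against a sequence-predicted unfolded-state K50 and a shared folded-state K50, per protease or combined.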

| Sequence | folding stability dG unfold |
| --- | --- |
| SAGGSAGGSAMKTIEIDIVIKNKETGEYYKAKAKIFENEDGSLIIEIEFEKNGKTLLIVLPPSAGGSAGGSA [r18_426_TrROS_Hall] | 3.31 ± 0.096 kcal/mol |
| SMKPPVKVRIRIYNPETGEEIATIEIEFLPDGTVKVTIEIDGKKYEIEMSLDELLEALKKLPFKIVEIEPSA [r9_470_TrROS_Hall] | 3.72 ± 0.12 kcal/mol |
| SPTIKASYDPETGVLTVYVKLRDPETGEPIPAEAVAAKIKELFPDAEILDIEPNPDGYVKITVKVAPDAVSA [r9_87_TrMRF] | 3.48 ± 0.11 kcal/mol |
| SAGGSAGGSAGGSGSKEPKYYYRVVVEDDGNPVVRTYAPDEPLPAPANLKVFPFLADEESAGGSAGGSAGGS [r4_107_TrMRF] | -0.421 ± 0.81 kcal/mol |
| SAGGMITLTVTREDWDTVYAKLKAEKNVTVKVVKGNTWSTYPASEVKALREEIPADPNEPLTLEIVESAGGS [r16_377_JUSTAS] | 0.0201 ± 0.18 kcal/mol |
| SAGGSAGGSAGGPPYEVNIYIKFRPPDGKPPTFPIDVNVNDPEDAKDELEDNFPNMEIVSAGGSAGGSAGGS [r10_1248_TrROS] | 0.592 ± 0.051 kcal/mol |
| SEEEIEERIKKLAEELGFKVTEIKIEKTDNKLTVTVTITLPNGKKLTFTVTRDKNGKLTFTPEQLKKALKSA [r9_85_TrROS_Hall] | 2.36 ± 0.038 kcal/mol |
| SAPKIEILEVDPNRVLIKIDATPEEIEKIVEEIKKKFPGVKVETEKLEGEKKYLIKVIPVPEVPEELKKSAG [r14_600_TrMRF] | 0.0352 ± 0.067 kcal/mol |
| SAGGLAEYIARYLQENDPRARVEAEEGDVLDGVRVIRVRVERVDDAFGGDIPSSADFILVIPAGAPPTSAGG [r19_8_TrMRF] | 1.36 ± 0.025 kcal/mol |
| SAGGSAGGSAGKKITIELPEGVKVYKLPNENDYIIVEDEKTKEKYIFKIKDGKVELIEKLSAGGSAGGSAGG [r11_1036_TrROS_Hall] | 1.01 ± 0.054 kcal/mol |
| SAGGSAGGSAGGAPEKEVTVRVRITVFRDGKPVEEIELEPGQTLTFPPGARVVIEVELLPSAGGSAGGSAGG [r7_141_TrROS_Hall] | 3 ± 0.13 kcal/mol |
| SAGGRIHIPIPLNQAREILKKLAPDGRDVTAEPQGPSKDNVYYTIEFEPPKNGNEVDIEIWIPPPGDSAGGS [r16_486_TrROS] | -0.000485 ± 0.1 kcal/mol |
| SAGGKLTELIRSLFEKLNVPLEPLETGPNSAIFRFPGKPGVFELPGNSRIVIFEDGLVVVVAPPNDLSAGGS [r8_297_TrMRF] | 1.51 ± 0.1 kcal/mol |
| SAGMMTIEIELKNGKKIKIEVEKKNGKYIIKITVYDKNGKKVKEVKIEVPKKNMSLEEIIKEALKKLLKSAG [r5_630_TrROS_Hall] | 2.83 ± 0.2 kcal/mol |
| ITITYDKETGELTVTLSVEIEREDGYLVRVSVTIRINPNGEIKIEKKIEVIKLPPAEVKLTDEELEKLKKES [r1_4_TrROS_Hall] | 2.41 ± 0.1 kcal/mol |
| MMLIIKVKNKKTGKTETIKIDMSVEEIKNAIKELKKKNPNAKVTIIGVKTEEVRKALKEAGIEKIEVKPLPS [r1_114_TrROS_Hall] | 3.01 ± 0.23 kcal/mol |

| Sequence | folding stability dG unfold |
| --- | --- |
| SMMKIRIVNKETKEEIEEIEIEKNEDGSYTIKIKIKKNGKTYEIEIKLPKGMKIEELLKKLGIEKAEIEPSA [r9_492_TrROS_Hall] | 1.55 ± 0.049 kcal/mol |
| SAGGMVKVLKVETYPGTGEVIVTMELPGNTVATVRIPRAPDAPLTVSPDGVVTVPTAPVTELETTAPSAGGS [r16_515_JUSTAS] | -0.276 ± 0.053 kcal/mol |
| SAGGSAGGSMPKTYSFKVKSKEEIVKLIEELKKLGAKKVEVKELPDGYELYVEVGDSVIKVYSSAGGSAGGS [r12_846_TrMRF] | 1.31 ± 0.065 kcal/mol |
| SAGGSAGGSSFSVEVIENPDSDVILRKIHFDNFTVIPLFDPSTGKIVSVVVQFPDGSWYTFPLSAGGSAGGS [r12_563_TrMRF] | 2.18 ± 0.1 kcal/mol |
| SAGGPETRTFTIPAAPATVTVTLEKVGDGYRVSLTLTNPDGQTVEVPPDQPVVIPAGASVGAALAPESAGGS [r16_669_TrMRF] | 1.01 ± 0.034 kcal/mol |
| SAGGSAGGSAGGKELEIVLYDKETNVLVTAKVRMENGKLTITEVKVEKVKPPKLPPGVKPSAGGSAGGSAGG [r7_276_TrROS_Hall] | 1.48 ± 0.06 kcal/mol |
| SAGMFVKIKFKTADKTVEELVKKIKEETGIPENAKITVIAEKSEDEGFVVIIEFDEEEVRDKIKEIVGSAGG [r19_215_TrMRF] | 1.52 ± 0.026 kcal/mol |
| SAGGKMVIVKIRIKERKVKVEKTKDGKEKKVEVEEKEKEITLIVEGSEEEVKKLAEELEKLGLEVEVISAGG [r13_452_TrROS_Hall] | 1.2 ± 0.063 kcal/mol |
| SAGGSAGGSIKIPPGQMIHIRYEHGGKKREYSFTIDPNDGKIDEIIPPDNLPGYKIEEIHIVPSAGGSAGGS [r12_6_TrROS] | -0.431 ± 0.33 kcal/mol |
| SAKIVIIPLGDKAIIIITDENGKTKTIELPGISKIEIKGDHLKIYDPKTGKLIIPPNWKGKDIIIIPGKSAG [r14_83_TrMRF] | 2.25 ± 0.22 kcal/mol |
| SMEMTPEERLLALLREARKKHPGKKIVLSVEEIEELLGVDLSAEEIAKLLKEELGIDEVEIVEEEEPEEESA [r9_738_TrROS_Hall] | 2.11 ± 0.056 kcal/mol |
| SAGGSAGGSAGKTLVFKTKEEALKAIEEEAKKKGYKKVKIEITEVGPDGKVKVKVKIEKKSAGGSAGGSAGG [r17_430_TrROS_Hall] | 0.763 ± 0.047 kcal/mol |
| SAGGSAGGSAGMVVSVDRATGTFTATDPALGTTTTVPGSEEEVRAYWAERFPDRPVTITASAGGSAGGSAGG [r11_614_JUSTAS] | -0.00347 ± 0.076 kcal/mol |
| SAGGSAGGSAGGKKIEIPGFEITKVEPLENDSVIAEGKFKNGKKYRILFLPNKVYINDESAGGSAGGSAGGS [r10_312_TrMRF] | 0.335 ± 0.16 kcal/mol |
| SASPPRRFMIKVTYPDGKTTLSYGDDPEQTRAALEAQIAEEHPGNYTIEYTELSPDEWASPEKAEALLSSAG [r14_900_JUSTAS] | 2.27 ± 0.034 kcal/mol |

Assay: folding stability dG unfold from chymotrypsin proteolysis; higher = more stable
How it was run: as §1

| Sequence | folding stability dG unfold |
| --- | --- |
| SAGGSAGGSAMKTIEIDIVIKNKETGEYYKAKAKIFENEDGSLIIEIEFEKNGKTLLIVLPPSAGGSAGGSA [r18_426_TrROS_Hall] | 3.82 ± 0.11 kcal/mol |
| SMKPPVKVRIRIYNPETGEEIATIEIEFLPDGTVKVTIEIDGKKYEIEMSLDELLEALKKLPFKIVEIEPSA [r9_470_TrROS_Hall] | 3.35 ± 0.064 kcal/mol |
| SPTIKASYDPETGVLTVYVKLRDPETGEPIPAEAVAAKIKELFPDAEILDIEPNPDGYVKITVKVAPDAVSA [r9_87_TrMRF] | 3.79 ± 0.086 kcal/mol |
| SAGGSAGGSAGGSGSKEPKYYYRVVVEDDGNPVVRTYAPDEPLPAPANLKVFPFLADEESAGGSAGGSAGGS [r4_107_TrMRF] | 0.857 ± 0.19 kcal/mol |
| SAGGMITLTVTREDWDTVYAKLKAEKNVTVKVVKGNTWSTYPASEVKALREEIPADPNEPLTLEIVESAGGS [r16_377_JUSTAS] | 0.382 ± 0.24 kcal/mol |
| SAGGSAGGSAGGPPYEVNIYIKFRPPDGKPPTFPIDVNVNDPEDAKDELEDNFPNMEIVSAGGSAGGSAGGS [r10_1248_TrROS] | 0.996 ± 0.15 kcal/mol |
| SEEEIEERIKKLAEELGFKVTEIKIEKTDNKLTVTVTITLPNGKKLTFTVTRDKNGKLTFTPEQLKKALKSA [r9_85_TrROS_Hall] | 3.609 ± 0.022 kcal/mol |
| SAPKIEILEVDPNRVLIKIDATPEEIEKIVEEIKKKFPGVKVETEKLEGEKKYLIKVIPVPEVPEELKKSAG [r14_600_TrMRF] | 1.44 ± 0.016 kcal/mol |
| SAGGLAEYIARYLQENDPRARVEAEEGDVLDGVRVIRVRVERVDDAFGGDIPSSADFILVIPAGAPPTSAGG [r19_8_TrMRF] | 1.38 ± 0.1 kcal/mol |
| SAGGSAGGSAGKKITIELPEGVKVYKLPNENDYIIVEDEKTKEKYIFKIKDGKVELIEKLSAGGSAGGSAGG [r11_1036_TrROS_Hall] | 1.86 ± 0.15 kcal/mol |
| SAGGSAGGSAGGAPEKEVTVRVRITVFRDGKPVEEIELEPGQTLTFPPGARVVIEVELLPSAGGSAGGSAGG [r7_141_TrROS_Hall] | 3.51 ± 0.12 kcal/mol |
| SAGGRIHIPIPLNQAREILKKLAPDGRDVTAEPQGPSKDNVYYTIEFEPPKNGNEVDIEIWIPPPGDSAGGS [r16_486_TrROS] | -0.234 ± 0.36 kcal/mol |
| SAGGKLTELIRSLFEKLNVPLEPLETGPNSAIFRFPGKPGVFELPGNSRIVIFEDGLVVVVAPPNDLSAGGS [r8_297_TrMRF] | 1.57 ± 0.093 kcal/mol |
| SAGMMTIEIELKNGKKIKIEVEKKNGKYIIKITVYDKNGKKVKEVKIEVPKKNMSLEEIIKEALKKLLKSAG [r5_630_TrROS_Hall] | 3.71 ± 0.28 kcal/mol |
| ITITYDKETGELTVTLSVEIEREDGYLVRVSVTIRINPNGEIKIEKKIEVIKLPPAEVKLTDEELEKLKKES [r1_4_TrROS_Hall] | 2.51 ± 0.11 kcal/mol |
